Laboratory results published in paper PMC2776994 (2009).

T1: PcrA helicase (UniProt P56255 1-724)
T1 sequence: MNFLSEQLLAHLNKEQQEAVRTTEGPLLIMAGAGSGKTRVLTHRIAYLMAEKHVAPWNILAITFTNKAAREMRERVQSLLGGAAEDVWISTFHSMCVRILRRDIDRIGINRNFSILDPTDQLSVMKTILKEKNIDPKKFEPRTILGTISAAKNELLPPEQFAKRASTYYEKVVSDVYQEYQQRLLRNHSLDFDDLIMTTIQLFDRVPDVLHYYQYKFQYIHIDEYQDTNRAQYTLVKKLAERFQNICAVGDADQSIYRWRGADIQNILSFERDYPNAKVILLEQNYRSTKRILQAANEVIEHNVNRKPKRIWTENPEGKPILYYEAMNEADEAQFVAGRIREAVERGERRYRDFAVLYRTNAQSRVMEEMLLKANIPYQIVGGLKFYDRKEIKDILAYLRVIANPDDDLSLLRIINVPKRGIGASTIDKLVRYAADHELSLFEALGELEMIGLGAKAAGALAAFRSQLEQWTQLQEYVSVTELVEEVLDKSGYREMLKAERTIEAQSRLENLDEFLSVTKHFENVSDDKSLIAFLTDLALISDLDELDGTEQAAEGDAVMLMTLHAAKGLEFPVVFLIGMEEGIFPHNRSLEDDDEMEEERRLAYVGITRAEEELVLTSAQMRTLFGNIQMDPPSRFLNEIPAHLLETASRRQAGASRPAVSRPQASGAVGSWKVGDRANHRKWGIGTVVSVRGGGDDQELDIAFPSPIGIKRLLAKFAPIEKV

T2: RepD (Staphylococcus aureus, UniProt P03065)
T2 chain: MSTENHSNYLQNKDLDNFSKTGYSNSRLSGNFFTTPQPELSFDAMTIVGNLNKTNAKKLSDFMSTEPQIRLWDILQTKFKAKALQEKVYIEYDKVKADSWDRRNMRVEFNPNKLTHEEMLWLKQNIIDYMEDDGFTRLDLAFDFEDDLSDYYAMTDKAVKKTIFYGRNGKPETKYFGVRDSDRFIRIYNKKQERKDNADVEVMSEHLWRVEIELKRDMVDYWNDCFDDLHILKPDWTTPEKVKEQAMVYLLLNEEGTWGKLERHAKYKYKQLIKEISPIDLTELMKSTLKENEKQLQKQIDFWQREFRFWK

B1: PcrA (protein)
chain: MNFLSEQLLAHLNKEQQEAVRTTEGPLLIMAGAGSGKTRVLTHRIAYLMAEKHVAPWNILAITFTNKAAREMRERVQSLLGGAAEDVWISTFHSMCVRILRRDIDRIGINRNFSILDPTDQLSVMKTILKEKNIDPKKFEPRTILGTISAAKNELLPPEQFAKRASTYYEKVVSDVYQEYQQRLLRNHSLDFDDLIMTTIQLFDRVPDVLHYYQYKFQYIHIDEYQDTNRAQYTLVKKLAERFQNICAVGDADQSIYRWRGADIQNILSFERDYPNAKVILLEQNYRSTKRILQAANEVIEHNVNRKPKRIWTENPEGKPILYYEAMNEADEAQFVAGRIREAVERGERRYRDFAVLYRTNAQSRVMEEMLLKANIPYQIVGGLKFYDRKEIKDILAYLRVIANPDDDLSLLRIINVPKRGIGASTIDKLVRYAADHELSLFEALGELEMIGLGAKAAGALAAFRSQLEQWTQLQEYVSVTELVEEVLDKSGYREMLKAERTIEAQSRLENLDEFLSVTKHFENVSDDKSLIAFLTDLALISDLDELDGTEQAAEGDAVMLMTLHAAKGLEFPVVFLIGMEEGIFPHNRSLEDDDEMEEERRLAYVGITRAEEELVLTSAQMRTLFGNIQMDPPSRFLNEIPAHLLETASRRQAGASRPAVSRPQASGAVGSWKVGDRANHRKWGIGTVVSVRGGGDDQELDIAFPSPIGIKRLLAKFAPIEKV
modifications: DNA junction

Experiments:
[1] = target: T1, PcrA helicase; experiment: not stated in material
[2] = target: T2, RepD; experiment: fluorescence anisotropy

Row | Binder | Kd [1] [nM] | Kd [2] [nM]
1 | TTTTTTTTTT (ssDNA) [dT10] | 240 | –
2 | B1 | – | 22
